Assay results from article PMC3343115, “Selective Blockade of Trypanosomatid Protein Synthesis by a Recombinant Antibody Anti-Trypanosoma cruzi P2β Protein” (PLoS ONE, 2012).

Experiments:
[1] = biological target: T1, TcP2β-GST fusion protein (Trypanosoma cruzi ribosomal P2β protein) (Trypanosoma cruzi, strain , UniProt P26795); assay: SPR; competition on BIACORE 3000: TcP2β-GST immobilised by amine coupling at 0.05 pmol/mm2; scFv C5 pre-incubated 30 min with different concentrations of peptide, injected 2 min, 3 min dissociation, 30 µl/min; HBS-EP buffer pH 7.4, 150 mM NaCl; IC50 from the decrease in the initial linear kinetics; conditions: both partners purified
T1 construct: Trypanosoma cruzi ribosomal P2β protein (TcP2β), recombinant; also called recombinant TcP2β protein
T1 sequence (P26795 whole entry, the tested form may be a part): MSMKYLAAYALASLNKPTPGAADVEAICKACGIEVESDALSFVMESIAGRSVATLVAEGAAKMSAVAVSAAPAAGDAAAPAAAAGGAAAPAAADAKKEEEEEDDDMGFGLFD

[2] = biological target: T2, R13 peptide (C-terminal epitope of T. cruzi P1α, P1β, P2α and P2β) (Trypanosoma cruzi); assay: as above; conditions: both partners purified
T2 construct: the text prints only the motif 3-EdDDmGF-9; the peptide is also in PDB 3SGE; source: synthetic peptide
T2 chain: EEEDDDMGFGLFD

[3] = biological target: T3, P015 peptide (C-terminal region of T. cruzi P0) (Trypanosoma cruzi, UniProt P26796); assay: as above; conditions: both partners purified
T3 construct: C-terminal region of the Trypanosoma cruzi ribosomal P0 protein (TcP0), called P015; aspartic acid in place of glycine 8 of R13; source: synthetic peptide
T3 chain: EEEDDDDDFGMGALF

[4] = biological target: T. cruzi ribosomal P0 protein (Trypanosoma cruzi, strain  in …, UniProt P26796); assay: cell-based or functional assay
Chain of T. cruzi ribosomal P0 protein (P26796 whole entry, looked up): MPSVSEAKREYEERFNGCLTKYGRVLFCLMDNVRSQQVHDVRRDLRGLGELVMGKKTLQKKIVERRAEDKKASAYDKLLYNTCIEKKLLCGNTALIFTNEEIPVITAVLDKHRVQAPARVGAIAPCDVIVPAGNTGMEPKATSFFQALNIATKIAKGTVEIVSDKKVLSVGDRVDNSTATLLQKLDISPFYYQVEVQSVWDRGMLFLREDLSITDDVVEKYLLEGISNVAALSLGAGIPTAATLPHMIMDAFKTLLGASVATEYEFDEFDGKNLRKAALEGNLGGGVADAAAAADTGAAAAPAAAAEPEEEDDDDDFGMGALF

B1: single chain recombinant antibody C5 (scFv C5) (scFv, V domains shown)
VH: EVQLEESGGRLVQPKGSLKLSCAASGFSFNTNAMNWVRQAPGKGLEWVARIRSKINNYSTYYADSVKDRFTISRDDSQSMLYLQMNNLKTEDTAMYYCVRGTTYWGQGTLVTVSA
VL: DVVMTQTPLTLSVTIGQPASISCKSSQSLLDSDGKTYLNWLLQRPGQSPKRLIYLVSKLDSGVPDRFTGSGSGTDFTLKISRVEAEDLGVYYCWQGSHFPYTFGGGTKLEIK
notes: VH of scFv C5, which derives from the parental monoclonal antibody 17.2; heavy chain variable domain of mAb 17.2 in PDB 3SGE (complex with R13) and 3SGD (apo); linker between the variable domains; VL of scFv C5, which derives from the parental monoclonal antibody 17.2; light chain variable domain of mAb 17.2 in PDB 3SGE (complex with R13) and 3SGD (apo); The His tag is known from detection with …
binding result [1]: binds | IC50 [2]: 2370 ± 230 nM | IC50 [3]: 22600 ± 2030 nM | inhibition of in vitro protein synthesis ([35S]-methionine incorporation) by T. cruzi ribosomes (about 130 nM), dose-response of scFv C5, IC50 [4]: ~62.4 nM
